Test results: the RNAGym collection of RNA variant scans (doi:10.7554/elife.90254)

B1: LINE1-full (parent)
chain: UACGUAGGUGGUUUUCCCCUGAUAGUGCUAAGGGGGCCUGGAAGUUUGGACUGGGCAGAGCUCAACACAGCGUGGCAAAGUGGCUGUGGCUAGACUGCCUCUCUGGAUUCCUCGUCACUCAGCAGGGCAUCUCUGAGAGAAAUGCC

Variants of: B1
Assay: self-cleavage, relative activity (ratio to wild type); higher = more cleavage; in vitro, sequencing; the parent is a self-cleaving ribozyme

Row | Variant | self-cleavage
1 | U115C G137A | 1.15
2 | U39C U62C | 0.09
3 | U52C A124G | 0.48
4 | A94G A141U | 0.19
5 | U14C A69U | 0.07
6 | G34A A43C | 1.23
7 | G11U C118U | 0.91
8 | C17U A42G | 1.36
9 | C28A A124G | 0.56
10 | U26C U100C | 1.29
11 | U13A G54U | 0.51
12 | U12C U115G | 2.63
13 | C116U A142G | 1.27
14 | U46C U143A | 1.44
15 | U45C C95U | 0.2
16 | U13C U85G | 0.29
17 | U14A U85C | 0.13
18 | U47C U96A | 0.1
19 | A65U U132C | 0.2
20 | A30G A142G | 1.07
21 | U12A A43G | 0.85
22 | A6U A141G | 0.94
23 | A43G G60A | 0.04
24 | A136G | 1.27

Row | Variant | self-cleavage
25 | C37U C113U | 0.42
26 | A79U U109G | 1.1
27 | U81C U85C | 0.12
28 | G10A U115A | 0.86
29 | G21A U45A | 1.58
30 | A57G C98G | 0.07
31 | C66A U115C | 0.05
32 | G36A U62G | 0.01
33 | A69G G93U | 0.01
34 | G86A A141U | 0.13
35 | G40A A77G | 1.02
36 | U23C U85C | 0.22
37 | A79G C101A | 0.68
38 | U62C U87C | 0.05
39 | A129U C133A | 1.26
40 | U108A U115A | 0.6
41 | C103U G114A | 1.19
42 | U109C A136G | 1.75
43 | U52C A141U | 1.14
44 | U62A A69G | 0.02
45 | U1A A42G | 1.35
46 | U13A U20C | 1.03
47 | U15C U96A | 0.1
48 | U9C C19U | 1.65

Row | Variant | self-cleavage
49 | U85C U87C | 0.04
50 | G72U U115C | 1.31
51 | A77G G139U | 2.41
52 | U62C C76U | 0.07
53 | A94U U102C | 0.16
54 | A24G G54U | 0.68
55 | A31G A107G | 1.09
56 | C18U A79G | 1
57 | U5A U73G | 0.48
58 | A57G G106U | 0.58
59 | U91A U130C | 0.79
60 | A24G G53A | 1.8
61 | A50U U100C | 0.81
62 | A79G U102A | 1.12
63 | A79G U102C | 0.89
64 | A42C A92C | 0
65 | U14A A42G | 0.98
66 | G34U A138U | 1.19
67 | G83A U132A | 1.09
68 | C19U G54A | 0.57
69 | A22G C99U | 0.23
70 | C37G A138G | 0.8
71 | A2G U29A | 1.14
72 | U47G A57G | 0.62

Row | Variant | self-cleavage
73 | C95A U100C | 0.09
74 | U46A G125A | 2
75 | U104C U109G | 1.53
76 | A22U U47C | 1.04
77 | U73C U143A | 1.63
78 | A30C G58U | 0.09
79 | U47A A79U | 1.64
80 | A42U U130C | 1.32
81 | G21A U109A | 0.64
82 | G21A U109C | 0.95
83 | U39G G135A | 1.86
84 | U46C U91C | 0.99
85 | U96A U143G | 0.1
86 | U96A U143C | 0.06
87 | U45C A107G | 1.73
88 | A94G A107G | 0.51
89 | C84A U112C | 0.16
90 | U15C A79C | 1.84
91 | C19U U143C | 0.98
92 | G35U G127A | 1.22
93 | G72C | 1.18
94 | U26C A138C | 1.28
95 | G35U U143A | 1.56
96 | U73C A117G | 1.23

Row | Variant | self-cleavage
97 | U12G U130G | 0.77
98 | A78G U134A | 0.9
99 | A31U C145A | 1.65
100 | G4A G139A | 1.21
101 | U132A G139A | 1.33
102 | U73C G86U | 0.03
103 | A64C U81G | 0.3
104 | A124G G144C | 0.68
105 | U73C A78G | 1.12
106 | U115C U132A | 2.4
107 | G105U A124U | 0.22
108 | U47C U102C | 1.9
109 | U9A A129C | 1.22
110 | G4A U14C | 0.59
111 | U45G G55C | 0.08
112 | U45A C146U | 1.37
113 | U52G U109A | 2.14
114 | U108A U130C | 1.51
115 | U15G A31G | 0.79
116 | G4A U47A | 0.52
117 | U46C A79U | 1.83
118 | A64C U87C | 0.22
119 | G44A C113U | 1.8
120 | A77U C131U | 1.19

Row | Variant | self-cleavage
121 | U29C G126A | 0.77
122 | G41A A69U | 0.06
123 | C71U A77G | 0.86
124 | G41U A94G | 0.05
125 | A22U A67G | 0.41
126 | G60A A79G | 0.05
127 | A42G G89U | 0.02
128 | U73A A141G | 1.74
129 | U26C G88A | 0.05
130 | U62C A69U | 0.03
131 | A67G C131G | 0
132 | U109A C145G | 0.98
133 | U23A G93A | 0.08
134 | U9C U13C | 1.19
135 | U14C U132A | 0.87
136 | U13C A31C | 0.97
137 | C3U U9C | 1.53
138 | U9G A117G | 1.31
139 | G80U A138G | 1.45
140 | A142G | 1.21
141 | U46A U134G | 0.84
142 | C18U A42C | 0.74
143 | U29C A64U | 0.54
144 | G88A U134A | 0.06

Row | Variant | self-cleavage
145 | U5A C38G | 0.71
146 | C120A A121G | 1.39
147 | U1A A43U | 0.68
148 | U115A G127A | 1.21
149 | A65G G139A | 0.06
150 | U14C U39C | 1
151 | A50G C128U | 0.36
152 | U29C U108G | 1.2
153 | A31U G144A | 0.96
154 | U20C C56U | 0.11
155 | U5C G114A | 0.96
156 | G34C A42G | 2.94
157 | U100C A129G | 1.99
158 | C28A A77U | 1.42
159 | A22U A65G | 0.14
160 | A42U A50G | 0.92
161 | C17A A43G | 0.89
162 | U14G A117U | 0.78
163 | A59G A78G | 0.06
164 | A59G A92G | 0.04
165 | U14C C116U | 1.14
166 | U52C G126U | 1.31
167 | A30G U102G | 1.84
